Results: publication doi:10.1101/2025.11.22.689886 (bioRxiv, 2025)

Biological target: the molecule itself
Test: SEC

B1: transdermal peptide-recombinant type III collagen fusion protein (other, human)
chain: FEGPASRPGFPGMKGHRGFDGRNGEKGETGAPGLKGENGLPGENGAPGPMGPRGAPGERGRPGLPGAAGARGNDGARGSDGQPGPPGPPGTAGFPGSPGAKGEVGPAGSPGSNGAPGQRGEPGPQGHAGAQGPPGPPGINGSPGGKGEMGPAGIPGAPGLMGARGPPGPAGANGAPGLRGGAGEPGKNGAKGEPGPRGERGEAGIPGVPGAKGEDGKDGSPGEPGANG
stoichiometry N: 3
